Source: patent publication US20120214741

T1: native mVDAC1 (mouse VDAC1), purified recombinant
T1 chain: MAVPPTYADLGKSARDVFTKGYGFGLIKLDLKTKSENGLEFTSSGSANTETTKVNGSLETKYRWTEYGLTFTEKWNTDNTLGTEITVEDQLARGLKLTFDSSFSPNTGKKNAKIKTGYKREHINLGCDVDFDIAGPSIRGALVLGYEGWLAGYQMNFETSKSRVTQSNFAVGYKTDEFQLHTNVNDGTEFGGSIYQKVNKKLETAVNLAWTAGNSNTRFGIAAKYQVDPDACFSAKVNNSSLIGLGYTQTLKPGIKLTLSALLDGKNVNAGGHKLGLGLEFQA

T2: VDAC of isolated rat mitochondria (liver, brain), Q9Z2L0
T2 chain: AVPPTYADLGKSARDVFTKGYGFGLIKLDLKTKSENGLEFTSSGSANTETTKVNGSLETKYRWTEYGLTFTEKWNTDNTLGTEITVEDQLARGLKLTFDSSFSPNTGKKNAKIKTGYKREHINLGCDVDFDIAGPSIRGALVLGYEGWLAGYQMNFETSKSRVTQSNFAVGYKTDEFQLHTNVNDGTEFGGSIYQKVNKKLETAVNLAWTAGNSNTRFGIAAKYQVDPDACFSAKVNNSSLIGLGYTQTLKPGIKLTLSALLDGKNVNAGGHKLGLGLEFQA

B1: Rat brain HK-I (hexokinase-I), purified (protein)
chain: MIAAQLLAYYFTELKDDQVKKIDKYLYAMRLSDEILIDILTRFKKEMKNGLSRDYNPTASVKMLPTFVRSIPDGSEKGDFIALDLGGSSFRILRVQVNHEKNQNVSMESEIYDTPENIVHGSGTQLFDHVADCLGDFMEKKKIKDKKLPVGFTFSFPCRQSKIDEAVLITWTKRFKASGVEGADVVKLLNKAIKKRGDYDANIVAVVNDTVGTMMTCGYDDQQCEVGLIIGTGTNACYMEELRHIDLVEGDEGRMCINTEWGAFGDDGSLEDIRTEFDRELDRGSLNPGKQLFEKMVSGMYMGELVRLILVKMAKEGLLFEGRITPELLTRGKFNTSDVSAIEKDKEGIQNAKEILTRLGVEPSDVDCVSVQHICTIVSFRSANLVAATLGAILNRLRDNKGTPRLRTTVGVDGSLYKMHPQYSRRFHKTLRRLVPDSDVRFLLSESGTGKGAAMVTAVAYRLAEQHRQIEETLAHFRLSKQTLMEVKKRLRTEMEMGLRKETNSKATVKMLPSFVRSIPDGTEHGDFLALDLGGTNFRVLLVKIRSGKKRTVEMHNKIYSIPLEIMQGTGDELFDHIVSCISDFLDYMGIKGPRMPLGFTFSFPCHQTNLDCGILISWTKGFKATDCEGHDVASLLRDAVKRREEFDLDVVAVVNDTVGTMMTCAYEEPTCEIGLIVGTGTNACYMEEMKNVEMVEGNQGQMCINMEWGAFGDNGCLDDIRTDFDKVVDEYSLNSGKQRFEKMISGMYLGEIVRNILIDFTKKGFLFRGQISEPLKTRGIFETKFLSQIESDRLALLQVRAILQQLGLNSTCDDSILVKTVCGVVSKRAAQLCGAGMAAVVEKIRENRGLDHLNVTVGVDGTLYKLHPHFSRIMHQTVKELSPKCTVSFLLSEDGSGKGAALITAVGVRLRGDPSIA
B2: trypsin-treated HK-I (protein)
chain: B1 chain
B3: chymotrypsin-treated HK-I (protein)
chain: FTELKDDQVKKIDKYLYAMRLSDEILIDILTRFKKEMKNGLSRDYNPTASVKMLPTFVRSIPDGSEKGDFIALDLGGSSFRILRVQVNHEKNQNVSMESEIYDTPENIVHGSGTQLFDHVADCLGDFMEKKKIKDKKLPVGFTFSFPCRQSKIDEAVLITWTKRFKASGVEGADVVKLLNKAIKKRGDYDANIVAVVNDTVGTMMTCGYDDQQCEVGLIIGTGTNACYMEELRHIDLVEGDEGRMCINTEWGAFGDDGSLEDIRTEFDRELDRGSLNPGKQLFEKMVSGMYMGELVRLILVKMAKEGLLFEGRITPELLTRGKFNTSDVSAIEKDKEGIQNAKEILTRLGVEPSDVDCVSVQHICTIVSFRSANLVAATLGAILNRLRDNKGTPRLRTTVGVDGSLYKMHPQYSRRFHKTLRRLVPDSDVRFLLSESGTGKGAAMVTAVAYRLAEQHRQIEETLAHFRLSKQTLMEVKKRLRTEMEMGLRKETNSKATVKMLPSFVRSIPDGTEHGDFLALDLGGTNFRVLLVKIRSGKKRTVEMHNKIYSIPLEIMQGTGDELFDHIVSCISDFLDYMGIKGPRMPLGFTFSFPCHQTNLDCGILISWTKGFKATDCEGHDVASLLRDAVKRREEFDLDVVAVVNDTVGTMMTCAYEEPTCEIGLIVGTGTNACYMEEMKNVEMVEGNQGQMCINMEWGAFGDNGCLDDIRTDFDKVVDEYSLNSGKQRFEKMISGMYLGEIVRNILIDFTKKGFLFRGQISEPLKTRGIFETKFLSQIESDRLALLQVRAILQQLGLNSTCDDSILVKTVCGVVSKRAAQLCGAGMAAVVEKIRENRGLDHLNVTVGVDGTLYKLHPHFSRIMHQTVKELSPKCTVSFLLSEDGSGKGAALITAVGVRLRGDPSIA

Key:
[1] = biological target: T1, native mVDAC1 (mouse VDAC1), purified …
[2] = biological target: E72Q-mVDAC1, purified recombinant
[3] = biological target: T2, VDAC of isolated rat mitochondria …

Row | Protein | VDAC1 channel closure in a planar lipid bilayer (currents before and 5 min after HK-I, 28.6 mU/ml) [1] | VDAC1 channel closure in a planar lipid bilayer (currents before and 5 min after HK-I, 28.6 mU/ml) [2] | PTP opening (Ca2+ accumulation and swelling of energized mitochondria) [3] | release of cytochrome c from mitochondria (Western blot) [3] | PTP opening (swelling of energized mitochondria) [3]
1 | B1 | HK-I is able to close native VDAC1 | HK-I is able to close native VDAC1 but not mutated E72Q-VDAC1 (SEQ ID NO:43) | HK-I inhibited PTP opening | HK-I prevented the release of cytochrome c from mitochondria | 
2 | B2 |  |  |  |  | The failure of non-binding species of HK, such as yeast HK, or trypsin- or chymotrypsin-treated HK-I (FIG. 2D) to prevent PTP opening
3 | B3 |  |  |  |  | The failure of non-binding species of HK, such as yeast HK, or trypsin- or chymotrypsin-treated HK-I (FIG. 2D) to prevent PTP opening
